The numbers were not newly measured in PMC3064480, which cites them from elsewhere.

The target in the data set is TβRII ED (Homo sapiens) (UniProt P37173). Description: SPR.
Sequence of TβRII ED (Homo sapiens) (P37173 23-166): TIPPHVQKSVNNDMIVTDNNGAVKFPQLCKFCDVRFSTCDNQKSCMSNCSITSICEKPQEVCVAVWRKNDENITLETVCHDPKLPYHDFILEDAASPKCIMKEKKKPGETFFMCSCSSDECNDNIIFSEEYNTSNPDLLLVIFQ

Sequence of TGF-β1 (P01137 279-390): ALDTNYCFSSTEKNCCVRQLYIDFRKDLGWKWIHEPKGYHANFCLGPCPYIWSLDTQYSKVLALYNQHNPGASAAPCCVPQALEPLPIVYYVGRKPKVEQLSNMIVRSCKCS

As usually defined, the Kd is the free concentration of one partner at which half of the binding sites on the other are occupied at equilibrium, for simple one-to-one binding. As to TGF-β1 (from UniProt P01137), the Kd is 5 pM.
